# Source: a protein production outcome set (Wang et al. 2014)
# Assay: label from the status in PepcDB records
row,Sequence,protein production
1,GGRGIIRLIKDNKSLTMKNTEVMLHGSSLAFDASTLEIYAALLNGACLSIIDKEDLIDSQTLKEKLKNDHVNRAFFTTPLFNSLCEQDPSVFNELEQVIIGGDRASNKHLKIVMKNSKKTQFYNGYGPTENTVFTTMHNIQYSELEGDIPIGKA,failed
2,GHHHHHHAIAENLYFQSSRNPEVLWAQRSDKVYLTVALPDAKDISVKCEPQGLFSFSALGAQGERFEFSLELYGKIMTEYRKNVGLRNIIFSIQKEERSWWTRLLKSEEKPAPYIKVDWNKWCDEDEEVNSETASDDESAFVNQDSESSDDDGLLYLPDLEKARNK,failed
3,GIHMGKIKRRAITEHEKRALRHYFFQLQNRSGQQDLIEWFREKFGKDISQPSVSQILSSKYSYLDNTVEKPWDVKRNRPPKYPLLEAALFEWQVQQGDDATLSGETIKRAAAILWHKIPEYQDQPVPNFSNGWLEGFRKRHILH,not failed
4,GIHYTSEKDIRQIVRPTIADYWEGKIDEATTYEDLEKLKQELREYRVLDPACGSGNFLYVAYQELKRLERVLLNKIYERRKRFQGEVLQQEEIGIVTPLQFFGMDTNPFAVQLARVTMMIARKIAIDKFGLTEPALPLDSLDQNIVCQDALFNDWPKADAIIGNPPFLGGSRVRLELGDKYVERIFEKFSDVKDKVDFCVYWFRLAHENLNKTGRAGLVGTNSISQGFSRRASLEYIVNNGGIIHDAISTQVWSGQANVHVSLVNWQYLKPPEYVLDHEIVKNINSSLKSETDVSNAVKLK,failed
5,GLIDESEQRLVDNIFEFEEKKIREIMVPRTDMVCIYESDSEEKILAILKEEGVTRYPVCRKNKDDILGFVHIRDLYNQKINENKIELEEILRDIIYISENLTIDKALERIRKEKLQLAIVVDEYGGTSGVVTIEDILEEIVGEIQ,not failed
6,GLPAVDSEILEMPPEKADGVVEGIDVNGPKAQLMLRYPDGKREQITLPEQAKLLALVKHVQSKGYPNERFELLTNFPRRKLSHLDYDITLQEAGLCPQETVFVQERN,failed
7,GLPVAQSTTTLIDALRTHRMAVVQAPPGTGKTTLVPPIAHNVTGGRVIVVAPRRVAVRAAAHHLVQLDQSSCDQPSTHRVGYTIRGERSRGDLVEFVTPGVLLRRLISNPELDGVSAVVVDEVHERQLDTDLVLGMLVELRELRDDLTVIAMSAT,failed
8,GLTTPLRELVENGFREGRIKIISSTPTLAAGLNLPARRVIIRSYRRYSSDSGMQPIPVLEYKQMAGRAGRPRLDPYGEAVLLAKSYEEFVFLFEKYIEAGAEDIWSKLGTENALRTHILSTISNGFA,failed
9,GMQGFFFNTRREIFKDKRVREALFYAFDFEWANKNLFFSQYKRTTSFFSNSIYASPPLPSPEEKALLAPYEKSLDERVFKEPYVVPRTDGVDVLGYNLRENLKYAQKLLESTGFSYKNMRLVDKNNKPFSFTLLLNSPAFERLALAFAKNLRVLGIEMKIQRVDLSQYVNRIKSYDFDMIVGVIGQSSFPGNEQRFYFGSLSAKEKGTRNYAGISSKAVDDLIEKIINAKDYKEQLAAIQAMDRVLLWGFYVIPHFYLP,failed
10,GNQSTSSKGSDTKKEQITVKHQLDKNGTKVPKNPKKVVVFDFGSLDTLDKLGLDDIVAGLPKQVLPKYLSKFKDDKYADVGSLKEPDFDKVAELDPDLIIISARQSESYKEFSKIAPTIYLGVDTAKYMESFKSDAETIGKIFDKEDKVKDELANIDHSIADVKKTAEKLNKNGLVIMANDGKISAFGPKSRYGLIHDVFGVAPADQNIKASTHGQSVSYEYISKTNPDYLFVIDRGTAIGETSSTKQVVENDYVKNVNAVKNGHVIYLDSATWYLSGGGLESMTQMIKEVKDGLEK,not failed
11,GPGSMYRSRPEPVQGHLFTYYKDPYCKIPVFMMNMDARRCVLWVGGQTESLLSFDYFTNLAEELQGDWAFVQVEVPSGKIGSGPQDHAHDAEDVDDLIGILLRDHCMNEVALFATSTGTQLVFELLENSAHKSSITRVILHGVVCDPENPLFTPEGCAARKEHVEKLMAEGRGEDSLAMLKHYDIPITPARLAGGGFPTLQEAVWNPCIRKEFDVLRRSVGVIKVPLLLMLAHNVQYKPSDEEVGTVLEGVRDHTGCNRVTVSYFNDTCDELRRVLKAAESEHVAAILQFLADEDEFRTETEKNNRIKAAEDEKKRKSVLQVSSFAQAASSVKAS,not failed
12,GPLGSAMRELLLSDEYAEQKRAVNRFMLLLSTLYSLDAQAFAEATESLHGRTRVYFAADEQTLLKNGNQTKPKHVPGTPYWVITNTNTGRKCSMIEHIMQSMQFPAELIEKVCGTI,not failed
13,GPVPTPPDNIQVQENFNISRIYGKWYNLAIGSTCPWLKKIMDRMTVSTLVLGEGATEAEISMTSTRWRKGVCEETSGAYEKTDTDGKFLYHKSKWNITMESYVVHTNYDEYAIFLTKKFSRHHGPTITAKLYGRAPQLRETLLQDFRVVAQGVGIPEDSIFTMADRGECVPGEQEPEPILIPRV,not failed
14,GQLAQDGVPEWFHGAISREDAENLLESQPLGSFLIRVSHSHVGYTLSYKAQSSCCHFMVKLLDDGTFMIPGEKVAHTSLDALVTFHQQKPIEPRRELLTQPCRQKD,not failed
15,GQTAKLVSLRDISDRKRMENQLRENQNKYYRLLENLDNGVIVHNANAEIVYANPKAESFLGLTDLEGRDIDDEYWMFFDKEGEKLEKEEFPVAQVLANQSSLKNFEMGIYRPDTDQLLWAYINAYPEFYNE,failed
16,GRDFAVDTKIETIGLTGSLSFKVNDNFSLGAGVIIQRTSGFVSQNLDLYASAANSPGMGGIPFPASNSSALMRVKVDNTSPGFFAGAVWKPTDRDTLGFAYHAKIRNKLKGHYNLYDHDGGLTEGAIEGGTPGLAYPGLDLRMGASASARLDIPAYASLDWVHQFNDRLSLGASATWTEWSSFQDLTLKSHGNTIVSIPYTYRNTWTLAVGGDYKVTDQWTMRAGVAYDQTPTHNATRDPRIPDGDRYFASLGAGYRFQSMPELSIDAAYSRQFVKEVPLKTV,failed
17,GSHFYFLSKRRRNLLRNPCGEEDLEGWSDVEHGGDGWKVEELPGDNGVEFTQDDSVKKYFASSFEWCRKAQVIDLQAEGYWEELLDTTQPAIVVKDWYSGRTDAGSLYELTVRLLSENEDVLAEFATGQVAVPEDGSWMEISHTFIDYGPGVRFVRFEHGGQDSVYWKGWFGARVTNSSVWVEP,not failed

row,Sequence,protein production
1,GSHMDKTFCVVVQNRIKEGYRRAGFSFHLGDNSLAAVSESQLAQLKADPRLVVQITETGSQEGGEGLSKEPAGSDEQKQLRADPPSTDLNTFTVEQLKAQLTERGITFKQSATKAELIALFAPADGEKSEA,not failed
2,GSLKCILLNQAEELPIEFLPKDGVYGKGKLFDSRNMEIENFTESDILQDARRAAEAHRRARYRVQSIVRPGITLLEIVRSIEDSTRTLLKGERNNGIGFPAGMSMNSCAAHYTVNPGEQDIVLKEDDVLKIDFGTHSDGRIMDSAFTVAFKENLEPLLVAAREGTETGIKSLGVDVRVCDIGRDINEVISSYEVEIGGRMWPIRPISDLHGHSISQFRIHGGISIPAVNNRDTTRIKGDSFYAVETFATTGKGSIDDRPPCSHFVLNTYKSRKLFNKDLIKVYEFVKDSLGTLPFSPRHLDYYGLVKGGSLKSVNLLTMMGLLTPYPPLNDIDGCKVAQFEHTVYLSEHGKEVLTRGDDY,not failed
3,GSLQDNSSYPDEPWRITEEQREYYVNQFRSLQPDPSSFISGSVAKNFFTKSKLSIPELSYIWELSDADCDGALTLPEFCAAFHLIVARKNGYPLPEGLPPTLQPEFIVTD,not failed
4,GSQPKLTEAVSLMEANIEEPLSTDDIAYYVGVSRRQLERLFKQYLGTVPSKYYLELRLNRARQLLQQTSKSIVQIGLACGFSSGPHFSSTYRNHFNITPREERAQRAQPGAL,not failed
5,GSSGSSGGYFDAHALAMDYRSLGFRECLAEVARYLSIIEGLDASDPLRVRLVSHLNNYASQREASGPSSG,not failed
6,GSSGSSGMPMTLGYWDIRGLAHAIRLFLEYTDSSYEEKRYTMGDAPDYDQSQWLNEKFKLGLDFPNLPYLIDGSHKITQSNAILRYLGRKHNLCGETEEERIRVDILENQLMDNRMVLARLCYNADFEKLKPGYLEQLPGMMRLYSEFLGKRPWFAGDKITFVDFIAYDVLERNQVFEAKCLDAFPNLKDFIARFEGLKKISDYMKTSRFLPRPMFTKMATWGSNSGPSSG,not failed
7,GSSGSSGMTPLVKDIIMSSTRMPALFLGHGSPMNVLEDNLYTRSWQKLGMTLPRPQAIVVVSAHWFTRGTGVTAMETPPTIHDFGGFPQALYDTHYPAPGSPALAQRLVELLAPIPVTLDKEAWGFDHGSWGVLIKMYPDADIPMVQLSIDSSKPAAWHFEMGRKLAALRDEGIMLVASGNVVHNLRTVKWHGDSSPYPWATSFNEYVKANLTWQGPVEQHPLVNYLDHEGGTLSNPTPEHYLPLLYVLGAWDGQEPITIPVEGIEMGSLSMLSVQIG,not failed
8,GTTVPAPIMQTTDNSLTWLLQNLLDRTPGTRHALVLSRDGLRLCWTEHLTLDRADQLAAICSGIQALAQGASVEFGNGTGGVRHSMTEFHGGLLFIVEAGEGAHLAVVAVEDADPGVVGHQMTELVEQIGEHLRAEPRH,failed
9,GVAVEVRGLPPAVPDELLTLYFENRRRSGGGPVLSWQRLGCGGVLTFREPADAERVLAQADHELHGAQLSLRPAPPRAPARLLLQGLPPGT,not failed
10,GVKYTIAVLGPQGSFSEEMALKLVGSRVPLRYCSTTDEIIKLVESGEVDYGLVPIENSVNGTVLPVIDALLNHDVEVFGEAKLEVNHCLVAKRKIELKEIKTIYSHPQAVAQCMGFINNYLPSVAIRYTTSTSDAARMLDDYSAAIMSENAARFYRLHVLRKGIQDLKGRNITRFYLIRRRSG,failed
11,GVQKVDKARKQITVAGGTRINEVGKTLKQHGLSLINQGDIDSQAVAGAFTTGTHGTGIKLGNMASSIAGMRIVKANGEILDIDGSDEELLHAAQVSVGTLGIISSMTLNVMDA,failed
12,GVTYLLAKRKILYFEAVESKIFVYTEKDVYETTWKLYELEEKFKDSSFFRCSKSMILNIEWIEKIAPGFHGKFEASLFNREKVIISRQYAKILKQKLNLGGKGK,failed
13,GWKVEYMAIADPQTIDQTPIVIVGGAFQNFNSYKYCVEQLFHCGPVILIDLPSMGANQQITNRDSGVSAAVLELPDLAKILVEWLDIIKIQKISMMGMSLGSVVASCFADLRPDMIDRLVLMGVMQKTRKSWRMILEESLKLMQENRMEEFGQAVILYLVNHAKLDQTRMSPTAKRLFFRQMAEFNPTERLRYEINCQRLLRLKDVPIPQCKTLVAAGQYDSFTLPFENANFALQCPDVEFALIANADHVPQLQRRKETMRLFETFLNH,failed
14,HALQAGRLGSTVFVANLDYKVGWKKLKEVFSMAGVVVRADILEDKDGKSRGIGTVTFEQSIEAVQAISMFNGQLLFDRPMHVKMDERALPKGDFFPPERPQQ,failed
15,HCSADLVLVEPTPLAVLDRIALVTDNGPFDPRKVELANGLAAAAGASLVLGHAVPADATEDQRATVRTYHEDLMGLCTVPVESNIVGTTTPAAMARAVSAADLVVVESDAAWWARLLDNREPQRIAGAFGGPAIVVRPQQAEGPSPVRRLLERVAF,failed
16,HEHPTSAGGDGGAGTGAVGTHDGSAAAAAAAAALPSISGARGHAGPEGGHDNDMGGMDASGGGGGGGYGRLPGLAAQSSMASVDGDEASLPPIANLSLGKANMTGSTVGGAAHASTRRSTLNTYYEPGAGGGGGTGGAGGGGGGAGPGPAGYGKVAKAAAVGGAGSVAGGGGVVGGAGVGGGGAVGSGTVGRRQSVGVVVGKYGSVNKQASQGHGGGGPGVAGAAGMAVTGGHAGGGVGGGGGGAVGVGGVGVNKYKANVGKTNSKYISPYSLRQLAG,failed
17,HERVGNLNQPIEVTALYSFEGQQPGDLNFQAGDRITVISKTDSHFDWWEGKLRGQTGIFPANYVTMN,not failed
